Data taken from patent US20220153847A1 (Chugai, published 2022).
Positions count from the first letter of the chain named.

Assays:
[1] = target: DQ2.5/alpha 1 gliadin peptide on IHW9023 cells (human); test: cell-based or functional assay
[2] = target: DQ2.5/alpha 2 gliadin peptide on IHW9023 cells (human); test: cell-based or functional assay
[3] = target: DQ2.5/omega 1 gliadin peptide on IHW9023 cells (human); test: cell-based or functional assay
[4] = target: DQ2.5/omega 2 gliadin peptide on IHW9023 cells (human); test: cell-based or functional assay
[5] = target: DQ2.5/gamma 1 gliadin peptide on IHW9023 cells (human); test: cell-based or functional assay
[6] = target: DQ2.5/BC hordein peptide on IHW9023 cells (human); test: cell-based or functional assay
[7] = target: DQ2.5/alpha 1b gliadin peptide on IHW9023 cells (human); test: cell-based or functional assay
[8] = target: DQ2.5/gamma 4a gliadin peptide on IHW9023 cells (human); test: cell-based or functional assay
[9] = target: T1, HLA-DQ2.5/33mer gliadin peptide complex on Ba/F3 cells (human); test: FACS, Ba/F3 cells; IC17=0%, DQN0139bb//IC17=100%;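 further: flow cytometry binding of anti-HLA-DQ antibodies at 5 µg/mL, incubated 30 min at room temperature with Ba/F3 lines presenting HLA-DQ/peptide complexes; antibody tested at 5 microgram/mL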
T1 construct: whole, on cells; also called Ba/F3-HLA-DQ2.5/33mer gliadin

HLA-DP on Ba/F3 cells = target: T2, HLA-DP on Ba/F3 cells (human, UniProt P20036 29-222; P04440 30-225, limits assumed); test: FACS on Ba/F3-HLA-DP cells, single antibody concentration, goat F(ab')2 anti-human IgG-PE
T2 construct: whole, on cells; also called Ba/F3-HLA-DP

HLA-DR on Ba/F3 cells = target: T3, HLA-DR on Ba/F3 cells (human, UniProt P01903 26-216; P79483 30-227, limits assumed); test: FACS on Ba/F3-HLA-DR cells, single antibody concentration, goat F(ab')2 anti-human IgG-PE
T3 construct: whole, on cells; also called Ba/F3-HLA-DR
T3 MHC II alpha: not shown
T3 MHC II beta: not shown

HLA-DQ5.1 on Ba/F3 cells = target: T4, HLA-DQ5.1 on Ba/F3 cells (human, limits assumed); test: FACS on Ba/F3-HLA-DQ5.1 cells, single antibody concentration, goat F(ab')2 anti-human IgG-PE
T4 construct: whole, on cells; also called Ba/F3-HLA-DQ5.1
T4 MHC II alpha: not shown
T4 MHC II beta: not shown

HLA-DQ6.3 on Ba/F3 cells = target: T5, HLA-DQ6.3 on Ba/F3 cells (human, UniProt P01920 33-230, limits assumed); test: FACS on Ba/F3-HLA-DQ6.3 cells, single antibody concentration, goat F(ab')2 anti-human IgG-PE
T5 construct: whole, on cells; also called Ba/F3-HLA-DQ6.3
T5 MHC II alpha: not shown
T5 MHC II beta: not shown

[10] = target: HLA-DQ2.5/33mer gliadin peptide on IHW9088 cells (human); test: cell-based or functional assay
HLA-DQ2.2 on Ba/F3 cells = target: T6, HLA-DQ2.2 on Ba/F3 cells (human, UniProt P01909 24-216, limits assumed); test: FACS, Ba/F3 cells; IC17=0%, DQN0139bb//IC17=100%;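 further: flow cytometry binding of anti-HLA-DQ antibodies at 5 µg/mL, incubated 30 min at room temperature with Ba/F3 lines presenting HLA-DQ/peptide complexes; antibody tested at 5 microgram/mL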
T6 construct: whole, on cells; also called Ba/F3-HLA-DQ2.2
T6 MHC II alpha: not shown
T6 MHC II beta: not shown

HLA-DQ7.5 on Ba/F3 cells = target: T7, HLA-DQ7.5 on Ba/F3 cells (human, UniProt P01909 24-216; P01920 33-230, limits assumed); test: FACS, Ba/F3 cells; IC17=0%, DQN0139bb//IC17=100%;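 further: flow cytometry binding of anti-HLA-DQ antibodies at 5 µg/mL, incubated 30 min at room temperature with Ba/F3 lines presenting HLA-DQ/peptide complexes; antibody tested at 5 microgram/mL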
T7 construct: whole, on cells; also called Ba/F3-HLA-DQ7.5

HLA-DQ8 on Ba/F3 cells = target: T8, HLA-DQ8 on Ba/F3 cells (human, UniProt P01909 24-216; P01920 33-230, limits assumed); test: FACS, Ba/F3 cells; IC17=0%, DQN0139bb//IC17=100%;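 further: flow cytometry binding of anti-HLA-DQ antibodies at 5 µg/mL, incubated 30 min at room temperature with Ba/F3 lines presenting HLA-DQ/peptide complexes; antibody tested at 5 microgram/mL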
T8 construct: whole, on cells; also called Ba/F3-HLA-DQ8
T8 MHC II alpha: not shown
T8 MHC II beta: not shown

HLA-DQ7.3 on Ba/F3 cells = target: T9, HLA-DQ7.3 on Ba/F3 cells (human, UniProt P01909 24-216; P01920 33-230, limits assumed); test: FACS, Ba/F3 cells; IC17=0%, DQN0139bb//IC17=100%
T9 construct: whole, on cells; also called Ba/F3-HLA-DQ7.3
T9 MHC II alpha: not shown
T9 MHC II beta: not shown

HLA-DQ2.5 on Ba/F3 cells = target: T10, HLA-DQ2.5 on Ba/F3 cells (human, UniProt P01909 24-216, limits assumed); test: FACS, Ba/F3 cells; IC17=0%, DQN0139bb//IC17=100%
T10 construct: whole, on cells; also called Ba/F3-HLA-DQ2.5

T2 sequence (P20036 29-222 limits assumed, chain 1 of 4, other chains not shown): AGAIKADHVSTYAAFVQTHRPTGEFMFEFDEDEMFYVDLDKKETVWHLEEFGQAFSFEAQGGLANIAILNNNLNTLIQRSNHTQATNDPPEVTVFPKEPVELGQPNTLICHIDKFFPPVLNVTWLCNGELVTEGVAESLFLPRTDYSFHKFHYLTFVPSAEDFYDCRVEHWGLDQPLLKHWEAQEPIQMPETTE
T2 sequence (P04440 30-225 limits assumed, chain 2 of 4, other chains not shown): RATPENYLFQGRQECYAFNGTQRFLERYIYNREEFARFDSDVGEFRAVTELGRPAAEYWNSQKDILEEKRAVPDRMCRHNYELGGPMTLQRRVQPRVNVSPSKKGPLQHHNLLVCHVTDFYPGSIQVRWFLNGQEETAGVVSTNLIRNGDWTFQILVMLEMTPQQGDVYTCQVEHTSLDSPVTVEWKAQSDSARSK

B1: DQN0344xx//DQN0385ee (bispecific antibody, human IgG1, kappa)
heavy 1: QSLEESGGGLVKPGGTLTLTCTASGFSFSSSYWMCWVRQAPGKGLEWVACVYGGSDTTYYASWTKGRFTISKGSSTTVALQVTSLTAADTATYFCARDPLNYYYYGELNLWGPGTLVTVSSASTKGPSVFPLAPSSKSTSGGTAALGCLVKDYFPEPVTVSWNSGALTSGVHTFPAVLQSSGLYSLSSVVTVPSSSLGTQTYICNVNHKPSNTKVDKRVEPKSCDKTHTCPPCPAPELRRGPSVFLFPPKPKDTLMISRTPEVTCVVVDVSHEDPEVKFNWYVDGVEVHNAKTKPREEQYNSTYRVVSVLTVLHQDWLNGKEYKCKVSNKALPAPIEKTISKAKGQPREPQVYTLPPSREEMTKNQVSLTCLVKGFYPSDIAVEWESNGQPENNYKTTPPYLDSDGSFFLYSKLTVDKSRWQQGNVFSCSVMHEALHNHYTQESLSLSP
light 1: AVVLTQTASPVSAAVGGTVTIRCQATENIYSGLAWYQQKPGQPPKVLIYYVSTLASGVPSRFKGSGSGTEYTLTISGVQCDDAATYYCQTYHDISNVTFGGGTKVEIKRTVAAPSVFIFPPSDEQLKSGTASVVCLLNNFYPREAKVQWKVDNALQSGNSQESVTEQDSKDCTYSLSSTLTLSKADYEKHKVYACEVTHQGLSSPVTKSFNRGEC
heavy 2: QEQLEESGGDLVKPGASLTLTCTASGFSFYSSYWICWVRQAPGKGLEWIACIDTGSGSIDYASWVNGRFTISKTSSTTVTLQMTSLTVADTATYFCARDIGIDYNFWGPGTLVTVSSASTKGPSVFPLAPSSKSTSGGTAALGCLVKDYFPEPVTVSWNSGALTSGVHTFPAVLQSSGLYSLSSVVTVPSSSLGTQTYICNVNHKPSNTKVDKRVEPKSCDKTHTCPPCPAPELRRGPSVFLFPPKPKDTLMISRTPEVTCVVVDVSHEDPEVKFNWYVDGVEVHNAKTKPREEQYNSTYRVVSVLTVLHQDWLNGKEYKCKVSNKALPAPIEKTISKAKGQPREPQVYTLPPSRKEMTKNQVSLTCLVKGFYPSDIAVEWESNGQPENNYKTTPPYLDSDGSFFLYSKLTVDKSRWQQGNVFSCSVMHEALHNHYTQKSLSLSP
light 2: AFELTQTPSFVEAAVGGTVTIKCQATQSISSYLNWYQQKPGQPPKLLIYYASTLASGVPSRFKGSGSGTEFSLTISGVECADAATYYCHYGISYVSFGGGTKVEIKRTVAAPSVFIFPPSDEQLKSGTASVVCLLNNFYPREAKVQWKVDNALQSGNSQESVTEQDSKDCTYSLSSTLTLSKADYEKHKVYACEVTHQGLSSPVTKSFNRGEC
- IC50, Jurkat NFAT-Luc T cell activation [1]: 0.019 µg/mL
- IC50, Jurkat NFAT-Luc T cell activation [2]: 0.000606 µg/mL
- IC50, Jurkat NFAT-Luc T cell activation [3]: 0.0177 µg/mL
- IC50, Jurkat NFAT-Luc T cell activation [4]: 0.00323 µg/mL
- IC50, Jurkat NFAT-Luc T cell activation [5]: 0.0469 µg/mL
- IC50, Jurkat NFAT-Luc T cell activation [6]: 0.0331 µg/mL
- IC50, Jurkat NFAT-Luc T cell activation [7]: 0.0594 µg/mL
- IC50, Jurkat NFAT-Luc T cell activation [8]: 0.892 µg/mL
- % MFI [9]: 91.3%
- binding result (HLA-DP on Ba/F3 cells): no binding (tested: 5 microgram/mL)
- binding result (HLA-DR on Ba/F3 cells): no binding (tested: 5 microgram/mL)
- binding result (HLA-DQ5.1 on Ba/F3 cells): no binding (tested: 5 microgram/mL)
- binding result (HLA-DQ6.3 on Ba/F3 cells): no binding (tested: 5 microgram/mL)

B2: DQN0385ee//IC17 (bispecific antibody, human IgG1, kappa)
heavy 1: B1 heavy 2 with K356E, K439E
light 1: B1 light 2
heavy 2: QVQLQQSGPQLVRPGASVKISCKASGYSFTSYWMHWVNQRPGQGLEWIGMIDPSYSETRLNQKFKDKATLTVDKSSSTAYMQLSSPTSEDSAVYYCALYGNYFDYWGQGTTLTVSSASTKGPSVFPLAPSSKSTSGGTAALGCLVKDYFPEPVTVSWNSGALTSGVHTFPAVLQSSGLYSLSSVVTVPSSSLGTQTYICNVNHKPSNTKVDKRVEPKSCDKTHTCPPCPAPELRRGPSVFLFPPKPKDTLMISRTPEVTCVVVDVSHEDPEVKFNWYVDGVEVHNAKTKPREEQYNSTYRVVSVLTVLHQDWLNGKEYKCKVSNKALPAPIEKTISKAKGQPREPQVYTLPPSRKEMTKNQVSLTCLVKGFYPSDIAVEWESNGQPENNYKTTPPYLDSDGSFFLYSKLTVDKSRWQQGNVFSCSVMHEALHNHYTQKSLSLSP
light 2: DIQMTQSSSSFSVSLGDRVTITCKASEDIYNRLAWYQQKPGNAPRLLISGATSLETGVPSRFSGSGSGKDYTLSITSLQTEDVATYYCQQYWSTPYTFGGGTKLEVKRTVAAPSVFIFPPSDEQLKSGTASVVCLLNNFYPREAKVQWKVDNALQSGNSQESVTEQDSKDSTYSLSSTLTLSKADYEKHKVYACEVTHQGLSSPVTKSFNRGEC
- IC50 (read off the curve) [10]: ~0.06 microgram/mL
- % MFI (HLA-DQ2.2 on Ba/F3 cells): 0.3%
- % MFI (HLA-DQ7.5 on Ba/F3 cells): 0.1%
- % MFI (HLA-DQ8 on Ba/F3 cells): 0.1%
- % MFI (HLA-DQ7.3 on Ba/F3 cells): 0.1%
- % MFI (HLA-DQ2.5 on Ba/F3 cells): 0.1%
